We go through 2 molecules from patent US10513545B2, “Fusion polypeptide in which anti-inflammatory polypeptide and ferritin monomer fragment are bound and pharmaceutical composition for preventing and treating inflammatory diseases, containing same as active ingredient” (KYUNGPOOK NATIONAL UNIVERSITY INDUSTRY-ACADEMIC COOPERATION …, priority 2015, dated 2019).

One assay concerns the target T1, soluble EPCR (sEPCR) (Homo sapiens, UniProt Q9UNN8).
T1 construct: 96-well flat microtiter plates were coated with soluble EPCR
T1 sequence (Q9UNN8 18-210 limits assumed): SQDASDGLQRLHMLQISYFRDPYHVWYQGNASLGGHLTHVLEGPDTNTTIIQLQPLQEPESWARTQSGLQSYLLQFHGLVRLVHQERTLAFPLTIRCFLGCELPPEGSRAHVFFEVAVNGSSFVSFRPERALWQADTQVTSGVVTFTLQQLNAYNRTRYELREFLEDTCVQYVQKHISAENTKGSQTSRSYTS
Kind of assay: solid-phase ELISA for binding affinity to soluble EPCR. As to conditions: FIG. 9, read-out: Kd(app) for the interaction with sEPCR. Here is the method:
9. Enzyme-Linked Immunosorbent Assays (ELISA) for Evaluating EPCR (Endothelial Protein C Receptor) Binding Affinity
To evaluate the interaction of the wild-type PC, PC-Gla peptides, TFG, and TFMG with EPCR, 96-well flat microtiter plates were coated with soluble EPCR in 20 mM carbonate-bicarbonate buffer (pH 9.6) containing 0.02% sodium azide, overnight at 4° C. After the plates were washed three times in TBS buffer (0.1 M NaCl, 0.02 M Tris-HCl, pH 7.4) containing 0.05% Tween 20, the plates were incubated with wild-type PC, PC-Gla peptides, TFG, and TFMG (7-1000 nM) diluted in the buffer for 1 h. After the plates were rinsed again, they were incubated with a goat anti-protein C polyclonal antibody (1:1000) for 1 h. Then, the plates were washed and incubated with rabbit anti-goat IgG (KPL, MD, 1:1000) for 1 h. After washing, the plates were incubated with 2,2′-azino-di(3-ethylbenzthiazoline-6-sulfonate) (ABTS; KPL, Gaithersburg, Md.). Colorimetric analysis was performed by measuring absorbance values at 405 nm.

A further assay concerns endothelial cells. Description: in vivo binding to endothelial cells (intravenously injected mice, isolated mouse endothelial cells). As to conditions: mouse animal model, FIG. 12B. An excerpt:
The endothelial cells were isolated according to the manufacturer's (Dynal Biotec, Lake Success, N.Y.) instructions, using Dynabeads coupled to anti-CD31 antibody and the Dynal Magnetic holder. Briefly, for endothelial cell isolation, four to six mice (6-10 weeks old) were anesthetized, followed by exposure of the peritoneal cavity. Excised lungs and hearts were put into RPMI media, followed by removing other tissues from the heart and lungs, and then rinsing once in PBS. The lungs and heart were incubated with 1.0 mg/mL of collagenase A in a 50 mL tube for 1 h at around 37° C. Every 5 min during this incubation, the tube was gently agitated for a few seconds, and then the suspension was transferred into a new 50 mL tube by passing it through the 70 um tissue sieve (BD Falcon). The filtered cell suspension was centrifuged for 10 min at 1000 rpm. After removal of the supernatant, the cell pellet was washed once with cold PBS in a new 15-mL tube. […]
A direct cell-binding assay was performed on HUVECs and in vivo using fluorescence labeled-PC-Gla, TFG, and TFMG. […] The fluorescence value of the HUVECs or endothelial cells were measured with tightly bound PC-Gla, TFG, and TFMG, respectively. The concentrations of PC-Gla, TFG, and TFMG were measured by using the nanoparticle ratio of fluorescent dye per protein.

In the next assay the target is T2, MMP-2 (Homo sapiens, UniProt P08253).
T2 sequence (P08253 110-660): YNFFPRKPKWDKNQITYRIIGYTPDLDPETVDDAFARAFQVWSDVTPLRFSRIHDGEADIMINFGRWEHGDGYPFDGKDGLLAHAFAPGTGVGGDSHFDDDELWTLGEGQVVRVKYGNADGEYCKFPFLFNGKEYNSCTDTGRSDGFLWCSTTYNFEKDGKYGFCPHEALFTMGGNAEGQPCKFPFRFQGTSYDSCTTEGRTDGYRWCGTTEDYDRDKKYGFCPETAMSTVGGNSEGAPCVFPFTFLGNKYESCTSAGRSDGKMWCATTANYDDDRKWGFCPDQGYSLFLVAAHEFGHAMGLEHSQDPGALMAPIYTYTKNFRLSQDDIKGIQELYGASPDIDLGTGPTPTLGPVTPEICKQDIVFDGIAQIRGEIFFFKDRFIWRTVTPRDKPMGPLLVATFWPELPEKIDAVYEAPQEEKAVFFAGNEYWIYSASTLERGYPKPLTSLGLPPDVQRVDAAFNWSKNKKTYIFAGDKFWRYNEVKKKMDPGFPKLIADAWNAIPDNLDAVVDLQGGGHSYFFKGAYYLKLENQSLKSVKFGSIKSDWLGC
Description: cleavage of nanocaged TFMG by activated MMP-2. The assay is classed as biochemical. As to conditions: p-aminophenylmercuric acetate-activated MMP-2, FIG. 6-8. The procedure:
To evaluate whether TFMG could be selectively cleaved by MMP2, TFMG was incubated with APMA-mediated activated MMP-2 in PBS at 37° C. for 3 h. The cleaved fragments of TFMG were detected by MALDI-ToF.

B1: TFMG: as TFG with an MMP-2 cleavable linker (GPLGLAG) between ferritin fragment C-terminus and PC-Gla (apparently SEQ ID NO: 15) (protein)
chain: MGGTTFLLRNASGHMSSQIRQNYSTDVEAAVNSLVNLYLQASYTYLSLGFYFDRDDVALEGVSHFFRELAEEKREGYERLLKMQNQRGGRIFLQDIKKPAEDEWGKTPDAMKAAMALEKKLNQALLDLHALGSARTDPHLCDFLETHFLDEEVKLIKKMGDHLTNLHRLGGGSEFVDGGGSGTSGPLGLAGANSFLEELRHSSLERECIEEICDFEEAKEIFQNVDDTLAFWSKHVLEHHHHHH
modifications: Fusion polypeptide (2)
For the molecule B1, the Kd with soluble EPCR (sEPCR) is 307 nM. The “in vivo binding to endothelial cells compared with PC-Gla” value with endothelial cells was “bound more strongly to, and stayed longer on, endothelial cells than PC-Gla did”. In addition, the “release of PC-Gla by linker cleavage with MMP-2” value with MMP-2 is reported as “continuously released PC-Gla”.

B2: TFG: fusion polypeptide: TRAP at N-terminus and PC-Gla at C-terminus of short ferritin monomer fragment, forms nanocage (apparently SEQ ID NO: 14) (protein)
chain: MGGTTFLLRNASGHMSSQIRQNYSTDVEAAVNSLVNLYLQASYTYLSLGFYFDRDDVALEGVSHFFRELAEEKREGYERLLKMQNQRGGRIFLQDIKKPAEDEWGKTPDAMKAAMALEKKLNQALLDLHALGSARTDPHLCDFLETHFLDEEVKLIKKMGDHLTNLHRLGGGSEFVDGGGSGTSANSFLEELRHSSLERECIEEICDFEEAKEIFQNVDDTLAFWSKHVLEHHHHHH
modifications: Fusion polypeptide (1)
Consider B2, for which the “in vivo binding to endothelial cells compared with PC-Gla” value in the assay with endothelial cells was “bound more strongly to, and stayed longer on, endothelial cells than PC-Gla did”.
